Test [1] has as its target T1, N-terminally polyhistidine tagged human MARCO ECD (147-520), recombinant (human, UniProt Q9UEW3 147-520).
T1 construct: also called PI-RG-3000; recombinant human MARCO; not shown: N-terminal polyhistidine tag
T1 sequence: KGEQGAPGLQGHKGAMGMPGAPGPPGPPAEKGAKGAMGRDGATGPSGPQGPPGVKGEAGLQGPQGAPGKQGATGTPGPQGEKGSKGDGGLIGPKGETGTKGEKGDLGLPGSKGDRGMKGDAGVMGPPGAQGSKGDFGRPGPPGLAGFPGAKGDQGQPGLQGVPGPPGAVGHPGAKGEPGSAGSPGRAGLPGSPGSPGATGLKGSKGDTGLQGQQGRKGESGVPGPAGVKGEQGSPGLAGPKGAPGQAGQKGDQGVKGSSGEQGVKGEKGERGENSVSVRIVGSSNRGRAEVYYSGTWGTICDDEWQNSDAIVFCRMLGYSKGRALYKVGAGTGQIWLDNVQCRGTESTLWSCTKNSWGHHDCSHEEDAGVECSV
The experiment in a line: Biacore; sample oxidized with 0.5% H2O2 (24 hr, RT). On the procedure:
(PBS)+1 mM AAPH for 6 h, 0.5 and 1.5% H₂O₂ in PBS for 24 h, which was compared to a previous experiment at 40° C. (PBS)+1 mM AAPH for 6 h. Post treatment the samples were analyzed by LC-MS/MS which identified the % modification on isolated peptides derived from the antibody after trypsin digest.
Binding of the stressed samples to recombinant human MARCO was assessed by Biacore.
On the technique in general: In SPR one partner is held on a chip, and binding of the other changes the refractive index at the surface.

The target of test [2] is T2, Mouse MARCO, full length, on cells (mouse, UniProt Q60754 1-518).
T2 construct: whole, on cells; the cell type is named under assay; also called muMARCO; MuMARCO
T2 sequence (looked up): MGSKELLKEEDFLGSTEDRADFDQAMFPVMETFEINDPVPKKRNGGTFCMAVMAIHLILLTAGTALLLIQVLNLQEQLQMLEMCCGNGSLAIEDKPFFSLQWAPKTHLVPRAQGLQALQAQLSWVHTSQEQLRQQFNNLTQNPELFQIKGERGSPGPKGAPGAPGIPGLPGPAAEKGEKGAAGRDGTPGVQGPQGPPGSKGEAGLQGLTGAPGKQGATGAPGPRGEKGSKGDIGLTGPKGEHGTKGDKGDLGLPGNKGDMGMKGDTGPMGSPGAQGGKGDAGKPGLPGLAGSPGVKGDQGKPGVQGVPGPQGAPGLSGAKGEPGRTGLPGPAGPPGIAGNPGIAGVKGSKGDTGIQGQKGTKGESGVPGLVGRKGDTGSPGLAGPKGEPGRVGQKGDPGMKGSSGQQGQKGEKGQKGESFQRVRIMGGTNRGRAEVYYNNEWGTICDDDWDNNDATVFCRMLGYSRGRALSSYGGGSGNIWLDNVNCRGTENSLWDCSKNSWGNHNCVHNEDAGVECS
Put plainly: flow cytometry, 293T (MuMARCO). (In general: Flow cytometry measures light scatter and fluorescence of single cells or particles in a stream.)

The target in test [3] is T3, chimera Mouse MARCO CLD-human MARCO SRCR, on cells.
T3 chain: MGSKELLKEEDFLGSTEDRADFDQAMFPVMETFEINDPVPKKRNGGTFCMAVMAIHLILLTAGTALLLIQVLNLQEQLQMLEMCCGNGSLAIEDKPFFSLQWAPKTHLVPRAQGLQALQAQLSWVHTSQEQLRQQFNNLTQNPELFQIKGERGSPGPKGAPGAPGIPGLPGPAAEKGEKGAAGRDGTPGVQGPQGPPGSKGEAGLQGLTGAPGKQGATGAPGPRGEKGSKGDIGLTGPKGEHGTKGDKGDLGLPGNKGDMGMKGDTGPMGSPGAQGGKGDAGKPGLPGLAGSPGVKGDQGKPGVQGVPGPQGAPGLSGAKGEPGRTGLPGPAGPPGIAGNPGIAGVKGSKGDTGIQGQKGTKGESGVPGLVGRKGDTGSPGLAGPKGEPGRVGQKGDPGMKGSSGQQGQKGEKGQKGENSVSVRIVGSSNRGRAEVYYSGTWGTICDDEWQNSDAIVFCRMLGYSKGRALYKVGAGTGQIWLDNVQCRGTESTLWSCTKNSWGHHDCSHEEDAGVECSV
Put plainly: flow cytometry, cells overexpressing HuSRCR-mouse CLD chimera.

As usually defined, the Kd is the concentration at which binding is half-saturated. Broadly, the EC50 is the midpoint of the concentration-response curve.

B1: PI-3015-AB (antibody, human IgG1, kappa)
heavy: not shown
light: DIQMTQSPSSLSASVGDRVTITCRASEGISNDLAWYQQKPGKAPKLLIYAASRLQSGVPSRFSGSGSGTDYTLTISSMQPEDFATYYCQQSYKYPLTFGQGTKLEIKRTVAAPSVFIFPPSDEQLKSGTASVVCLLNNFYPREAKVQWKVDNALQSGNSQESVTEQDSKDSTYSLSSTLTLSKADYEKHKVYACEVTHQGLSSPVTKSFNRGEC
Take B1: the Kd in test [1] is 1.05 nM.

B2: PI-HX-3061 (antibody, rat IgG2a)
heavy: EVQLVESGGGLVQPGSSLKLSCVASKFTFSNYGMNWIRQAPKKGLEWIALIYYNSNNKYYADSVKGRFTISRDNSKNTLYLEMNSLRSEDTAMYYCAKSLTGGSDYFDSWGQGVMVTVSSAETTAPSVYPLAPGTALKSNSMVTLGCLVKGYFPEPVTVTWNSGALSSGVHTFPAVLQSGLYTLTSSVTVPSSTWPSQTVTCNVAHPASSTKVDKKIVPRNCGGDCKPCICTGSEVSSVFIFPPKPKDVLTITLTPKVTCVVVDISQDDPEVHFSWFVDDVEVHTAQTRPPEEQFNSTFRSVSELPILHQDWLNGRTFRCKVTSAAFPSPIEKTISKPEGRTQVPHVYTMSPTKEEMTQNEVSITCMVKGFYPPDIYVEWQMNGQPQENYKNTPPTMDTDGSYFLYSKLNVKKEKWQQGNTFTCSVLHEGLHNHHTEKSLSHSP
light: DVQMTQSPSYLAASPGESVSISCKASKSIGTFLAWYQEKPEKTNKLLIYSGSTLQSGTPSRFSGSGSGTDFTLTIRNLEPEDFAVYYCQQHDEYPFTFGSGTKLEIKRADAAPTVSIFPPSTEQLATGGASVVCLMNNFYPRDISVKWKIDGTERRDGVLDSVTDQDSKDSTYSMSSTLSLTKADYESHNLYTCEVVHKTSSSPVVKSFNRNEC
notes: Parental rat hybridoma, rat IgG2a; cross reactive with human and mouse MARCO
B2: the response in test [2] was half-maximal at 1.52 nM (EC50).

B3: PI-3010-AB (antibody, human IgG1, kappa)
heavy: not shown
light: DIQMTQSPASLSTSLGETVSIECLASEGISNDLAWYQQKSGKSPQLLIYAASRLQDGVPSRFSGSGSGTRYSLKISGMQPEDEADYFCQQSYKYPLTFGSGTKLEIKRTVAAPSVFIFPPSDEQLKSGTASVVCLLNNFYPREAKVQWKVDNALQSGNSQESVTEQDSKDSTYSLSSTLTLSKADYEKHKVYACEVTHQGLSSPVTKSFNRGEC
B3 showed an EC50 in test [3] of 0.25 nM.

These data come from patent publication US20220153832A1 (PIONYR IMMUNOTHERAPEUTICS, published 2022).
